Laboratory results from ChEMBL document CHEMBL2073814, “Involvement of organic cation transporter 1 in hepatic and intestinal distribution of metformin” (J Pharmacol Exp Ther, 2002).

T1: Solute carrier family 22 member 1 (Mus musculus, UniProt O08966)
T1 sequence (O08966 whole entry): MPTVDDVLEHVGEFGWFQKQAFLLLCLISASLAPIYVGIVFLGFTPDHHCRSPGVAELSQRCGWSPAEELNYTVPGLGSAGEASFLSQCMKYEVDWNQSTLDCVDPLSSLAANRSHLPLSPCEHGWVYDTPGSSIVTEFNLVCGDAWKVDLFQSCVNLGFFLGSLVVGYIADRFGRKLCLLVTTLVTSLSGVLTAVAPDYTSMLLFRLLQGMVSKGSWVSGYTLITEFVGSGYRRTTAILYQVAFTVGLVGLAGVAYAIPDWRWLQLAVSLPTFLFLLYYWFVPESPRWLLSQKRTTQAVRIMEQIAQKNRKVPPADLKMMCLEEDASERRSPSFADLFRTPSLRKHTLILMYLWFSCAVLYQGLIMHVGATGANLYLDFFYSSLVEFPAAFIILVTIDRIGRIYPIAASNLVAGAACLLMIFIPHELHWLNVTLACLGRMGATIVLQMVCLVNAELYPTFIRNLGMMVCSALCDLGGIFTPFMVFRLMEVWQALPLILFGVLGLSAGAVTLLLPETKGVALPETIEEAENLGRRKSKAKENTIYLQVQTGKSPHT

B1: Solute carrier family 22 member 1 (Rattus norvegicus) (protein)
chain: MPTVDDVLEQVGEFGWFQKQAFLLLCLISASLAPIYVGIVFLGFTPGHYCQNPGVAELSQRCGWSQAEELNYTVPGLGPSDEASFLSQCMRYEVDWNQSTLDCVDPLSSLVANRSQLPLGPCEHGWVYDTPGSSIVTEFNLVCGDAWKVDLFQSCVNLGFFLGSLVVGYIADRFGRKLCLLVTTLVTSVSGVLTAVAPDYTSMLLFRLLQGMVSKGSWVSGYTLITEFVGSGYRRTTAILYQMAFTVGLVGLAGVAYAIPDWRWLQLAVSLPTFLFLLYYWFVPESPRWLLSQKRTTRAVRIMEQIAQKNGKVPPADLKMLCLEEDASEKRSPSFADLFRTPNLRKHTVILMYLWFSCAVLYQGLIMHVGATGANLYLDFFYSSLVEFPAAFIILVTIDRIGRIYPIAASNLVTGAACLLMIFIPHELHWLNVTLACLGRMGATIVLQMVCLVNAELYPTFIRNLGMMVCSALCDLGGIFTPFMVFRLMEVWQALPLILFGVLGLTAGAMTLLLPETKGVALPETIEEAENLGRRKSKAKENTIYLQVQTGKSSST

Assays:
[1] = target: T1, Solute carrier family 22 member 1; experiment: TP_TRANSPORTER: decrease in small intestine concentration in Oct1 -/- mouse; assay type: functional, organism-based; conditions: in vivo
[2] = target: T1, Solute carrier family 22 member 1; experiment: TP_TRANSPORTER: decrease in liver concentration in Oct1 -/- mouse; assay type: functional, organism-based; conditions: in vivo
[3] = substrate: CCCCNC(=N)NC(=N)N; experiment: cells, lysate or membranes named
[4] = substrate: [H]/N=C(/N)N/C(=N/[H])NCCc1ccccc1; experiment: (§1) TP_TRANSPORTER: uptake in OCT1-expressing CHO cells; assay type: functional, cell-based
[5] = substrate: CN(C)C(=N)N=C(N)N; experiment: as §1; assay type: functional, cell-based

Row | Molecule | Activity [1] | Activity [2] | Km [3] [µM] | Km [4] [µM] | Km [5] [µM]
1 | CN(C)C(=N)N=C(N)N [METFORMIN] | substrate [+] | substrate [+] |  |  | 
2 | B1 |  |  | 48.8 | 15.6 | 377
